Results taken from patent US20090208538A1 (ROCKEFELLER UNIVERSITY, published 2009).

What was measured:
[1] = molecular target: T1, HLA-A*0201 (human); assay: iTopia off-rate;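 further: Half-life of peptide complexes with plate-bound HLA-A2, peptides loaded 18 h at 21 C, washed, then held at 37 C over several time points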
T1 construct: also called HLA-A2.1; HLA A2.1

[2] = molecular target: T1, HLA-A*0201; assay: iTopia affinity;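 further: peptide affinity for plate-bound HLA-A2 molecules (iTopia system), with ED50 derived from an eight-point serial peptide dilution series run under binding assay conditions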
[3] = molecular target: T1, HLA-A*0201; assay: iTopia net score;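 further: combined score from peptide binding, ED₅₀ and half-life of peptide complexes with plate-bound HLA-A2 molecules, computed by a proprietary formula in iTopia software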
[4] = molecular target: T1, HLA-A*0201; assay: iTopia binding;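 further: each peptide tested for binding to HLA-A2 molecules immobilized on plates, using a commercial screening kit run per its supplied protocol and reagents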

## SLTETIECL [cdr2 114-122 SLTETIECL]
[1]
  t1/2: 9.3
[2]
  ED50: 4 µM
[3]
  iScore: 0.518
[4]
  binding vs positive control: > 30%
